# Laboratory results: article doi:10.1101/2021.03.30.437644
# T1: SLIM1 (Arabidopsis thaliana (Col-0), UniProt O23116 1-567)
# T1 sequence: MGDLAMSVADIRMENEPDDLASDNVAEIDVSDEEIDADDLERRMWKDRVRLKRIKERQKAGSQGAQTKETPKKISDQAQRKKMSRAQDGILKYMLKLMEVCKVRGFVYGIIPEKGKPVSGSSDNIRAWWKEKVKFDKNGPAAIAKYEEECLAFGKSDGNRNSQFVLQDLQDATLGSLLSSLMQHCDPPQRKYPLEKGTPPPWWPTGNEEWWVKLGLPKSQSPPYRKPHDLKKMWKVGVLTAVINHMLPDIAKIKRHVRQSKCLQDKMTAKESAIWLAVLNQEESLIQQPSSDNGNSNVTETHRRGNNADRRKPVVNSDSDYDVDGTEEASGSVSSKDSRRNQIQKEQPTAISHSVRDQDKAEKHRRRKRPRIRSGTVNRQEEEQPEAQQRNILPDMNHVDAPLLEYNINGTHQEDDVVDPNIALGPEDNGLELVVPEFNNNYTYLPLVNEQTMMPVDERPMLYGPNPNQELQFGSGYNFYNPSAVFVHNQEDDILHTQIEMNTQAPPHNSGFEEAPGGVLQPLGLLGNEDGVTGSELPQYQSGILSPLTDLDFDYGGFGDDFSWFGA
# T2: bZIP16 (Arabidopsis thaliana (Col-0), UniProt Q501B2 1-409)
# T2 sequence: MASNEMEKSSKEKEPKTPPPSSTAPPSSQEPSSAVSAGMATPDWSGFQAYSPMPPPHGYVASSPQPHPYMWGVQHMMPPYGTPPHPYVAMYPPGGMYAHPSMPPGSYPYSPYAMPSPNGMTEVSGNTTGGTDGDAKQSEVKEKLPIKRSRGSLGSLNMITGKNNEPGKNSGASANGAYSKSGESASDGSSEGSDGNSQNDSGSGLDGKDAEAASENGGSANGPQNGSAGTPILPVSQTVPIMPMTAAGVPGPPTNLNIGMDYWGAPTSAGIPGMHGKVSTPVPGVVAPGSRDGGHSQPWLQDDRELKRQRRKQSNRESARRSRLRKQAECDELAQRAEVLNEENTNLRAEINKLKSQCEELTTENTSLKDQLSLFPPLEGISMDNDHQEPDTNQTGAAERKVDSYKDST
# T3: HYH (bZIP64) (Arabidopsis thaliana (Col-0), UniProt Q8W191 1-149)
# T3 sequence: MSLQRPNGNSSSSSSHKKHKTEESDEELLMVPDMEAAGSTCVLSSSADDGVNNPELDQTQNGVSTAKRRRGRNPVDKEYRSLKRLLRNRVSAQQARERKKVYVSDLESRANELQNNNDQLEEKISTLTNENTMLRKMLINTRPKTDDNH
# T4: GBF1 (bZIP41) (Arabidopsis thaliana (Col-0), UniProt P42774 1-315)
# T4 sequence: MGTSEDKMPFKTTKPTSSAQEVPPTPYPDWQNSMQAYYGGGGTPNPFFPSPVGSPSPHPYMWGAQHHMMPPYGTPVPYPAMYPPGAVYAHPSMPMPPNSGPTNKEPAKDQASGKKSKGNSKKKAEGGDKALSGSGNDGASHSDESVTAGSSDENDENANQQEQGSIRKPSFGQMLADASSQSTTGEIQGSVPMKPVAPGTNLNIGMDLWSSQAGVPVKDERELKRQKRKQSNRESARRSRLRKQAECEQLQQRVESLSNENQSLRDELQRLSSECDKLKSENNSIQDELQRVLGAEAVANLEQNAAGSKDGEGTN
# Experiments:
# SLIM1 = target: T1, SLIM1; assay: EMSA
# bZIP16 [1] = target: T2, bZIP16; assay: EMSA
# HYH (bZIP64) [2] = target: T3, HYH (bZIP64); assay: EMSA
# bZIP44 [3] = target: T5, bZIP44 (Arabidopsis thaliana (Col-0), UniProt C0Z2L5 1-173); assay: EMSA
# T5 sequence (C0Z2L5 whole entry): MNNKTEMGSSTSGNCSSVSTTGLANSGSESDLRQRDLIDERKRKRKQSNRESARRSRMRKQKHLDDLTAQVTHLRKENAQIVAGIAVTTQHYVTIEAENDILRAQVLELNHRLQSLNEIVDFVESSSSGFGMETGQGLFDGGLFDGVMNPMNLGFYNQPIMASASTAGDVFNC
# bZIP16 [4] = target: T2, bZIP16; assay: competition EMSA
# HYH (bZIP64) [5] = target: T3, HYH (bZIP64); assay: competition EMSA
# bZIP44 [6] = target: T5, bZIP44; assay: competition EMSA
# GBF1 (bZIP41) = target: T4, GBF1 (bZIP41); assay: EMSA
binder,measurement,setting,value
Probe 1 (proxSDI1) (dsDNA) DNA 1: GTGGTAAGAAGTCTCCAAGTGACGTGGCAGCTTCTATGAACAGAGACGAA DNA 2: TTCGTCTCTGTTCATAGAAGCTGCCACGTCACTTGGAGACTTCTTACCAC,binding result,SLIM1,binds
Probe 4 (proxSDI2) (dsDNA) DNA 1: GACGGATAGGGTACGTGGCACTATTTTATA DNA 2: TATAAAATAGTGCCACGTACCCTATCCGTC,binding result,bZIP16 [1],binds
same,binding result,HYH (bZIP64) [2],binds
same,binding result,bZIP44 [3],binds
Mutated probe 4 (dsDNA) DNA 1: GACGGATAGGGTAAAAGGCACTATTTTATA DNA 2: TATAAAATAGTGCCTTTTACCCTATCCGTC,binding result,bZIP16 [4],no binding
same,binding result,HYH (bZIP64) [5],no binding
same,binding result,bZIP44 [6],no binding
Probe 2 (proxSDI2) (dsDNA) DNA 1: GAGAGATAAAGAAGGTTTCTTCATTTAGAAACAGAGACACGAAGTTTGCG DNA 2: CGCAAACTTCGTGTCTCTGTTTCTAAATGAAGAAACCTTCTTTATCTCTC,binding result,SLIM1,binds
Probe 3 (proxSDI2) (dsDNA) DNA 1: GACCAGCCCGCGGTATTTTAGATCCAGTTGACGATAATGAACCAAGACGA DNA 2: TCGTCTTGGTTCATTATCGTCAACTGGATCTAAAATACCGCGGGCTGGTC,binding result,GBF1 (bZIP41),binds
